Source: paper PMC7666158
Residue numbers refer to the chain shown, from its start. Numbers in names are those of the source.

B1: MBP-ATF2(19-100)-WT (domain or fragment)
chain: MSDDKPFLCTAPGCGQRFTNEDHLAVHKHKHEMTLKFGPARNDSVIVADQTPTPTRFLKNCEEVGLFNELASPFENEFKKAS
B2: MBP-ATF2(19–100) K48E (domain or fragment)
chain: B1 chain with K30E
B3: MBP-ATF2-(19-100)-V44A (domain or fragment)
chain: B1 chain with V26A
B4: MBP-ATF2-(19-100)-Q34R/H47R (domain or fragment)
chain: B1 chain with Q16R, H29R
B5: MBP-ATF2-(19-100)-V44E (domain or fragment)
chain: B1 chain with V26E
B6: MBP-ATF2-(19-100)-Q34R (domain or fragment)
chain: B1 chain with Q16R
B7: MBP-ATF2-(19-100)-H47E (domain or fragment)
chain: B1 chain with H29E
B8: MBP-ATF2-(19-100)-H47R (domain or fragment)
chain: B1 chain with H29R

How the values were obtained:
[1] = target: JNK1-dc20 (JNK1 where the C-terminal 20 residues are truncated) (human) (UniProt P45983); assay: fluorescence polarisation; competitive titration: JNK1 with CF-evJIP (50 nM; JNK1 at ~60-80% complex formation) titrated with unlabeled MBP-ATF2(19-100) constructs; data fit to a competition binding equation; 20 mM Tris pH 8.0, 100 mM NaCl, 0.05% Brij35P, 2 mM TCEP
[2] = target: pp-JNK1 (activated, phosphorylated JNK1) (human) (UniProt P45983); assay: in vitro kinase assay fitted with a kinetic model; 5 nM pp-JNK or pp-p38, MBP-ATF2(19-100) substrate 0.5-100 uM, 5 mM ATP, kinase buffer; p-T71 and p-T69/T71 by quantitative dot-blots; binding rates (kon, koff) and reaction rates fitted simultaneously with the BioNetGen model (PyBioNetFit)
[3] = target: JNK1-dc20 (JNK1 with the C-terminal 20 residues truncated) (human) (UniProt P45983); assay: fluorescence polarisation; competitive: 50 nM CF-evJIP with JNK1 at ~60–80% complex, titrated with unlabeled competitor; 20 mM Tris pH 8.0, 100 mM NaCl, 0.05% Brij35P, 2 mM TCEP; 384-well plates
[4] = target: JNK1-dc20 (JNK1 with the C-terminal 20 residues truncated) (human) (UniProt P45983); assay: ITC; as a5, with 2 mM EDTA

| Binder | Kd [1] | other results |
| --- | --- | --- |
| B1 | 3.5 µM | Kd [2]: 3.5 µM; koff [2]: 19.6 s⁻¹; kon [2]: 5.6e+06 M⁻¹ s⁻¹ |
| B2 |  | fold decrease in binding against the wild type [3]: 10 fold |
| B3 | 15.5 µM |  |
| B4 | 0.05 µM |  |
| B5 | 56.2 µM |  |
| B6 | 0.87 µM |  |
| B7 | 39.3 µM |  |
| B8 | 0.26 µM |  |
| MSDDKPFLCTAPGCGQRFTNEDHLAVHKHKHEMTLKFGPA (domain or fragment) [ATF2(19–58)-His6 (MBP removed, for ITC)] |  | fold decrease in binding with EDTA against no EDTA [4]: 10 fold |
| MSDDKPFLCTAPGCGQRFTNEDHLAVHKHKHEMTLKFGPA (domain or fragment) [ATF2(19–58) as used in the competitive fluorescence polarisation assay] |  | Kd [3]: 5 µM |
